Test results from publication PMC3472097 (Structure (London, England : 1993), 2012).

B1: nuclear inhibitor of PP1 (NIPP1), residues 1-225 (FHA domain and PP1-binding domain) (domain or fragment, UniProt Q12972 1-225, looked up)
chain: MAAAANSGSSLPLFDCPTWAGKPPPGLHLDVVKGDKLIEKLIIDEKKYYLFGRNPDLCDFTIDHQSCSRVHAALVYHKHLKRVFLIDLNSTHGTFLGHIRLEPHKPQQIPIDSTVSFGASTRAYTLREKPQTLPSAVKGDEKMGGEDDELKGLLGLPEEETELDNLTEFNTAHNKRISTLTIEEGNLDIQRPKRKRKNSRVTFSEDDEIINPEDVDPSVGRFRNM
B2: NIPP1 PP1-binding domain, residues 144-225 (domain or fragment, UniProt Q12972 144-225, looked up)
chain: GGEDDELKGLLGLPEEETELDNLTEFNTAHNKRISTLTIEEGNLDIQRPKRKRKNSRVTFSEDDEIINPEDVDPSVGRFRNM
B3: NIPP1 PP1-binding domain, residues 158-216 (domain or fragment, UniProt Q12972 158-216, looked up)
chain: EEETELDNLTEFNTAHNKRISTLTIEEGNLDIQRPKRKRKNSRVTFSEDDEIINPEDVD

Target: protein phosphatase 1 alpha (PP1α), residues 7-330, recombinant (UniProt P62136 7-330)
Assay: ITC

protein phosphatase 1 alpha (PP1α), residues 7-330, recombinant, sequence (P62136 7-330): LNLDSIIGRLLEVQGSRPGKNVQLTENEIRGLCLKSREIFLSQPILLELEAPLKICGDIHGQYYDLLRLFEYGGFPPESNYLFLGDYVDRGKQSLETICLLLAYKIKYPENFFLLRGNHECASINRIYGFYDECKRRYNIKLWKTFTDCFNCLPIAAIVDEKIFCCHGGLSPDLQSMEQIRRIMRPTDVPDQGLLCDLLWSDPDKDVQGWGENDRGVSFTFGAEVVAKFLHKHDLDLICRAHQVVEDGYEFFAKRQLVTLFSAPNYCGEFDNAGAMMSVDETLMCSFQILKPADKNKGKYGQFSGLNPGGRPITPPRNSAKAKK

Binder | Kd [µM]
B1 | 0.0178
B2 | 0.073
B3 | 0.104
